Assay results taken from the supplement of paper PMC9112550, “Optimization of the antimicrobial peptide Bac7 by deep mutational scanning” (BMC Biology, 2022).

Tested on: Escherichia coli TOP10
Assay: shrunken log2 fold change of peptide-encoding DNA abundance (4.5 h post-induction vs induction); higher = less antimicrobial activity (less host growth inhibition)
Settings: time post-induction: 4.5 h; library: site-saturation at positions 5, 18, 19, 20
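Also: peptides expressed intracellularly from a pBAD plasmid library in pooled LB shake-flask culture, induced with 0.3% L-arabinose, DNA abundance read by NGS, three biological replicates, DESeq2 with apeglm shrinkage.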

Sequence	shrunken log2 fold change
RRIRERPPRLPRPRPRPSGQPRP	-0.148
RRIRERPPRLPRPRPRPSIDPRP	-0.0545
RRIRERPPRLPRPRPRPSIFPRP	-0.343
RRIRERPPRLPRPRPRPSIGPRP	-0.406
RRIRERPPRLPRPRPRPSKEPRP	-0.0565
RRIRERPPRLPRPRPRPSKIPRP	-0.506
RRIRERPPRLPRPRPRPSKYPRP	-1.02
RRIRERPPRLPRPRPRPSLHPRP	-0.309
RRIRERPPRLPRPRPRPSLVPRP	-0.0847
RRIRERPPRLPRPRPRPSMDPRP	-0.355
RRIRERPPRLPRPRPRPSMRPRP	0.353
RRIRERPPRLPRPRPRPSNDPRP	-0.247
RRIRERPPRLPRPRPRPSPEPRP	0.0512
RRIRERPPRLPRPRPRPSQGPRP	-0.153
RRIRERPPRLPRPRPRPSQMPRP	0.0681
RRIRERPPRLPRPRPRPSRCPRP	0.0232
RRIRERPPRLPRPRPRPSRHPRP	-0.439
RRIRERPPRLPRPRPRPSSIPRP	-0.855
RRIRERPPRLPRPRPRPSSQPRP	0.123
RRIRERPPRLPRPRPRPSTCPRP	-0.324
RRIRERPPRLPRPRPRPSTWPRP	-0.651
RRIRERPPRLPRPRPRPSVSPRP	-0.335
RRIRERPPRLPRPRPRPTAFPRP	-0.16
RRIRERPPRLPRPRPRPTCAPRP	-0.162
RRIRERPPRLPRPRPRPTECPRP	-0.00173

Sequence	shrunken log2 fold change
RRIRERPPRLPRPRPRPTFVPRP	0.0579
RRIRERPPRLPRPRPRPTGPPRP	0.353
RRIRERPPRLPRPRPRPTHGPRP	0.0992
RRIRERPPRLPRPRPRPTIGPRP	-0.323
RRIRERPPRLPRPRPRPTIKPRP	-0.178
RRIRERPPRLPRPRPRPTIYPRP	0.00607
RRIRERPPRLPRPRPRPTPFPRP	-0.211
RRIRERPPRLPRPRPRPTPVPRP	0.059
RRIRERPPRLPRPRPRPTQYPRP	-0.304
RRIRERPPRLPRPRPRPTSKPRP	-0.426
RRIRERPPRLPRPRPRPTTMPRP	-0.364
RRIRERPPRLPRPRPRPTVPPRP	-0.237
RRIRERPPRLPRPRPRPTWGPRP	-0.0539
RRIRERPPRLPRPRPRPTWHPRP	0.358
RRIRERPPRLPRPRPRPTYFPRP	-0.475
RRIRERPPRLPRPRPRPVAEPRP	0.0949
RRIRERPPRLPRPRPRPVCAPRP	0.415
RRIRERPPRLPRPRPRPVCQPRP	0.121
RRIRERPPRLPRPRPRPVCRPRP	-0.0104
RRIRERPPRLPRPRPRPVDMPRP	-0.107
RRIRERPPRLPRPRPRPVDWPRP	0.0136
RRIRERPPRLPRPRPRPVEKPRP	-0.0163
RRIRERPPRLPRPRPRPVETPRP	-0.02
RRIRERPPRLPRPRPRPVFYPRP	-0.437
RRIRERPPRLPRPRPRPVGCPRP	0.168

Sequence	shrunken log2 fold change
RRIRERPPRLPRPRPRPVGRPRP	0.233
RRIRERPPRLPRPRPRPVHAPRP	-0.0762
RRIRERPPRLPRPRPRPVHMPRP	-0.0419
RRIRERPPRLPRPRPRPVHQPRP	0.107
RRIRERPPRLPRPRPRPVKHPRP	0.0875
RRIRERPPRLPRPRPRPVKMPRP	-0.0989
RRIRERPPRLPRPRPRPVLSPRP	-0.101
RRIRERPPRLPRPRPRPVMDPRP	-0.0467
RRIRERPPRLPRPRPRPVPLPRP	-0.244
RRIRERPPRLPRPRPRPVQPPRP	0.336
RRIRERPPRLPRPRPRPVRDPRP	0.337
RRIRERPPRLPRPRPRPVSWPRP	0.368
RRIRERPPRLPRPRPRPVTKPRP	0.365
RRIRERPPRLPRPRPRPVTPPRP	0.0669
RRIRERPPRLPRPRPRPVTYPRP	-0.17
RRIRERPPRLPRPRPRPVVIPRP	-0.251
RRIRERPPRLPRPRPRPVVLPRP	-0.0819
RRIRERPPRLPRPRPRPVYRPRP	-0.514
RRIRERPPRLPRPRPRPWCDPRP	-0.508
RRIRERPPRLPRPRPRPWCFPRP	-0.161
RRIRERPPRLPRPRPRPWEEPRP	-0.0572
RRIRERPPRLPRPRPRPWEHPRP	-0.221
RRIRERPPRLPRPRPRPWEVPRP	-0.17
RRIRERPPRLPRPRPRPWFDPRP	-0.529
RRIRERPPRLPRPRPRPWFIPRP	-0.00655

Sequence	shrunken log2 fold change
RRIRERPPRLPRPRPRPWGAPRP	0.165
RRIRERPPRLPRPRPRPWGRPRP	0.268
RRIRERPPRLPRPRPRPWGWPRP	0.173
RRIRERPPRLPRPRPRPWHDPRP	-0.251
RRIRERPPRLPRPRPRPWHEPRP	-0.0932
RRIRERPPRLPRPRPRPWHVPRP	-0.0018
RRIRERPPRLPRPRPRPWILPRP	0.0494
RRIRERPPRLPRPRPRPWIRPRP	-0.667
RRIRERPPRLPRPRPRPWKSPRP	-0.0163
RRIRERPPRLPRPRPRPWKWPRP	-0.0653
RRIRERPPRLPRPRPRPWLKPRP	-0.24
RRIRERPPRLPRPRPRPWMPPRP	-0.062
RRIRERPPRLPRPRPRPWMQPRP	-0.327
RRIRERPPRLPRPRPRPWMWPRP	0.0673
RRIRERPPRLPRPRPRPWRKPRP	-0.173
RRIRERPPRLPRPRPRPWSGPRP	-0.48
RRIRERPPRLPRPRPRPWSMPRP	-0.707
RRIRERPPRLPRPRPRPWTVPRP	0.0377
RRIRERPPRLPRPRPRPWVLPRP	-0.0134
RRIRERPPRLPRPRPRPWVRPRP	-0.122
RRIRERPPRLPRPRPRPWVVPRP	-0.151
RRIRERPPRLPRPRPRPWWAPRP	-0.0718
RRIRERPPRLPRPRPRPWWMPRP	-0.436
RRIRERPPRLPRPRPRPWYAPRP	-0.137
RRIRERPPRLPRPRPRPWYSPRP	-0.798

Sequence	shrunken log2 fold change
RRIRERPPRLPRPRPRPWYYPRP	0.0432
RRIRERPPRLPRPRPRPYCFPRP	-0.511
RRIRERPPRLPRPRPRPYCGPRP	-0.109
RRIRERPPRLPRPRPRPYDKPRP	-1.41
RRIRERPPRLPRPRPRPYDNPRP	0.033
RRIRERPPRLPRPRPRPYDPPRP	-0.0709
RRIRERPPRLPRPRPRPYECPRP	-0.0425
RRIRERPPRLPRPRPRPYFTPRP	-0.971
RRIRERPPRLPRPRPRPYHDPRP	-0.114
RRIRERPPRLPRPRPRPYIEPRP	-0.266
RRIRERPPRLPRPRPRPYIRPRP	-1.16
RRIRERPPRLPRPRPRPYITPRP	-1.07
RRIRERPPRLPRPRPRPYKCPRP	-0.122
RRIRERPPRLPRPRPRPYKDPRP	-0.157
RRIRERPPRLPRPRPRPYLDPRP	-0.149
RRIRERPPRLPRPRPRPYLHPRP	-0.96
RRIRERPPRLPRPRPRPYLMPRP	-0.696
RRIRERPPRLPRPRPRPYMHPRP	-0.232
RRIRERPPRLPRPRPRPYMNPRP	-0.602
RRIRERPPRLPRPRPRPYNLPRP	-0.321
RRIRERPPRLPRPRPRPYPAPRP	-0.544
RRIRERPPRLPRPRPRPYPIPRP	0.113
RRIRERPPRLPRPRPRPYQFPRP	-0.159
RRIRERPPRLPRPRPRPYQHPRP	-0.106
RRIRERPPRLPRPRPRPYRLPRP	-0.102

Sequence	shrunken log2 fold change
RRIRERPPRLPRPRPRPYRPPRP	-0.41
RRIRERPPRLPRPRPRPYSEPRP	-0.157
RRIRERPPRLPRPRPRPYSTPRP	-0.335
RRIRERPPRLPRPRPRPYTCPRP	-0.398
RRIRERPPRLPRPRPRPYWAPRP	-0.888
RRIRERPPRLPRPRPRPYWIPRP	-0.376
RRIRERPPRLPRPRPRPYWNPRP	-0.858
RRIRERPPRLPRPRPRPYWRPRP	-0.0166
RRIRERPPRLPRPRPRPYYNPRP	-0.675
RRIRFRPPRLPRPRPRPAAKPRP	-0.118
RRIRFRPPRLPRPRPRPACNPRP	-0.26
RRIRFRPPRLPRPRPRPACVPRP	-0.0826
RRIRFRPPRLPRPRPRPADEPRP	0.173
RRIRFRPPRLPRPRPRPAEMPRP	0.00299
RRIRFRPPRLPRPRPRPAEYPRP	-0.397
RRIRFRPPRLPRPRPRPAFPPRP	0.00578
RRIRFRPPRLPRPRPRPAGIPRP	-0.161
RRIRFRPPRLPRPRPRPAGMPRP	-0.124
RRIRFRPPRLPRPRPRPAIFPRP	-0.416
RRIRFRPPRLPRPRPRPAISPRP	-0.193
RRIRFRPPRLPRPRPRPAQNPRP	0.348
RRIRFRPPRLPRPRPRPAQWPRP	0.296
RRIRFRPPRLPRPRPRPASPPRP	0.164
RRIRFRPPRLPRPRPRPAVAPRP	0.196
RRIRFRPPRLPRPRPRPCALPRP	-0.554
